# B1: POU domain class 2-associating factor 1 (Homo sapiens), Q16633 (parent)
# chain: MLWQKPTAPEQAPAPARPYQGVRVKEPVKELLRRKRGHASSGAAPAPTAVVLPHQPLATYTTVGPSCLDMEGSVSAVTEEAALCAGWLSQPTPATLQPLAPWTPYTEYVPHEAVSCPYSADMYVQPVCPSYTVVGPSSVLTYASPPLITNVTTRSSATPAVGPPLEGPEHQAPLTYFPWPQPLSTLPTSTLQYQPPAPALPGPQFVQLPISIPEPVLQDMEDPRRAASSLTIDKLLLEEEDSDAYALNHTLSVEGF
# partner: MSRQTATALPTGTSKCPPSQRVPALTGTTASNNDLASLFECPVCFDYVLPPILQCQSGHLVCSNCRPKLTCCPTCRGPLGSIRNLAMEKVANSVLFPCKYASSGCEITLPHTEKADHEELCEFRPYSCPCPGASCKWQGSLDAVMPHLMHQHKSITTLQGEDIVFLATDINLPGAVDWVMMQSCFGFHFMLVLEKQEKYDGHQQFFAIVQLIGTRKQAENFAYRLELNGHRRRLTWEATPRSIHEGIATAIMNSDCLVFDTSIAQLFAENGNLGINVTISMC
# Variants of: B1
# Settings: with siah1_human SIAH1, Q8IUQ4
row,Variant,effect of a mutation on the interaction
1,MLWQKPTAPEQAPAPARPYQGVRVKEPVKELLRRKRGHASSGAAPAPTAVELPHQPLATYTTVGPSCLDMEGSVSAVTEEAALCAGWLSQPTPATLQPLAPWTPYTEYVPHEAVSCPYSADMYVQPVCPSYTVVGPSSVLTYASPPLITNVTTRSSATPAVGPPLEGPEHQAPLTYFPWPQPLSTLPTSTLQYQPPAPALPGPQFVQLPISIPEPVLQDMEDPRRAASSLTIDKLLLEEEDSDAYALNHTLSVEGF [V51E],disrupting interaction
